Results on one substance are retold here after EP4554620A1.

The target in assay [1] is Human TIGIT residues 23-128 with C-terminal HIS tag (human) (UniProt Q495A1). In words: SPR, amine coupling, pH 7.4 against pH 6.0.
Assay [2] deals with Human TIGIT residues 23-128 ASP63A mutant (human) (UniProt Q495A1). In words: SPR, capture immobilization, TIGIT alanine mutants. Background: In SPR one partner is held on a chip, and binding of the other changes the refractive index at the surface.
Assay [3] concerns the target Human TIGIT residues 23-128 HIS76A mutant (human) (UniProt Q495A1). Description: SPR, capture immobilization, TIGIT alanine mutants.
The target in assay [4] is Human TIGIT residues 23-128 ILE68A mutant (human) (UniProt Q495A1). In words: SPR, capture immobilization, TIGIT alanine mutants.
In assay [5] the target is Human TIGIT residues 23-128 LEU73A mutant (human) (UniProt Q495A1). In words: SPR, capture immobilization, TIGIT alanine mutants.
Assay [6] has as its target Human TIGIT residues 23-128 LEU73A/HIS76A double mutant (human) (UniProt Q495A1). Description: SPR, capture immobilization, TIGIT alanine mutants.
Assay [7] concerns the target Human TIGIT residues 23-128 PRO79A mutant (human) (UniProt Q495A1). In words: SPR, capture immobilization, TIGIT alanine mutants.

Sequence of Human TIGIT residues 23-128 ILE68A mutant (human) (Q495A1 other isoform, or with tags, fused parts or gaps mutant, form in doubt): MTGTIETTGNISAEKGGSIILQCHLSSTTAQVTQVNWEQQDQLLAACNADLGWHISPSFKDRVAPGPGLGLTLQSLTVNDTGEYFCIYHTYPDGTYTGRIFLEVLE
Sequence of Human TIGIT residues 23-128 with C-terminal HIS tag (human) (Q495A1 23-128, form in doubt): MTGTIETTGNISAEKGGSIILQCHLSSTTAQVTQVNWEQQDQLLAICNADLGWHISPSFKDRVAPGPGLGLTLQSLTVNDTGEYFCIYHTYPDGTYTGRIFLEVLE
Sequence of Human TIGIT residues 23-128 LEU73A/HIS76A double mutant (human) (Q495A1 other isoform, or with tags, fused parts or gaps mutant, form in doubt): as the sequence (Q495A1 23-128, form in doubt) above, with L51A, H54A counted along it
Sequence of Human TIGIT residues 23-128 PRO79A mutant (human) (Q495A1 other isoform, or with tags, fused parts or gaps mutant, form in doubt): as the sequence (Q495A1 23-128, form in doubt) above, with P57A counted along it
Sequence of Human TIGIT residues 23-128 LEU73A mutant (human) (Q495A1 other isoform, or with tags, fused parts or gaps mutant, form in doubt): as the sequence (Q495A1 23-128, form in doubt) above, with L51A counted along it
Sequence of Human TIGIT residues 23-128 HIS76A mutant (human) (Q495A1 other isoform, or with tags, fused parts or gaps mutant, form in doubt): as the sequence (Q495A1 23-128, form in doubt) above, with H54A counted along it
Sequence of Human TIGIT residues 23-128 ASP63A mutant (human) (Q495A1 other isoform, or with tags, fused parts or gaps mutant, form in doubt): as the sequence (Q495A1 23-128, form in doubt) above, with D41A counted along it

In turn, A1217 (Ociperlimab) (antibody) had a fold increase of binding affinity (KD) from pH 7.4 to pH 6.0 in assay [1] of 17 fold. Besides, the fold decrease in binding affinity against WT TIGIT in assay [2] came to 7 fold; in assay [4] it was 30 fold. The fold reduction of binding against wild-type TIGIT in assay [3], in assay [4] and in assay [6] was more than 10 fold in each case. The substance further displayed a fold reduction in binding affinity against WT TIGIT in assay [5] of 7 fold. The substance also came in with a fold lower binding affinity against WT TIGIT in assay [7] of 3 fold.
